Data taken from patent US10357573B2, “Block copolymer conjugate of physiologically active substance” (Nippon Kayaku Kabushiki Kaisha, priority 2015, dated 2019).

Columns and labels:
[1] = Test Example C-1 intrarenal distribution test; type: in vivo, nude mouse; conditions: 5 mg/kg as converted to 2-(2-aminoethoxy)-9-(diethylamino)-5H-benzo[a]phenoxazin-5-one, iv once, one hour after administration
From the text: (§1) A tumor mass of human pancreatic cancer BxPC3 that had been subcultured by subcutaneous transplantation in a BALB/c nude mouse was cut into a block having a size of about 3 mm on each side, and this block was subcutaneously transplanted on the dorsal side of a nude mouse using a trocar. […] One hour after the administration, blood was removed from the mouse under isoflurane anesthesia, frozen embedded slices of the removed tumor and the kidneys were produced, and fluorescence was observed.

[2] = tested on: human pancreatic cancer BxPC3; experiment: Test Example C-1 intratumor distribution test; type: in vivo, nude mouse; conditions: 5 mg/kg as converted to 2-(2-aminoethoxy)-9-(diethylamino)-5H-benzo[a]phenoxazin-5-one, iv once, one hour after administration
From the text: as §1

[3] = Light scattering intensity of 1 mg/mL aqueous solution, relative to toluene; type: physicochemical
Description: Regarding the measurement sample for the scattering intensity measurement, a solution obtained by adding ultrapure water to a physiologically active substance-conjugated block copolymer to obtain a concentration of 1 mg/mL, dissolving the block copolymer by irradiating the mixture with ultrasonic waves for 10 minutes under ice cooling, and then filtering the solution through a 0.2-μm membrane filter, was used.
Toluene (manufactured by Junsei Chemical Co., Ltd., special grade) that was used for the measurement of the light scattering intensity, was used after being filtered three times through a 0.2-μm membrane filter.

[4] = tested on: human colorectal cancer Col-5-JCK and Co-3-KIST, human breast cancer MC-19-JCK; conditions: 75 or 50 mg/kg as converted to Ganetespib, iv once, compared to Comparative Example B-1
Description: The tumor volume was determined by measuring the major axis (L: mm) and the minor axis (W: mm) of the tumor, and calculating the volume by the calculation formula: (L×W^2)/2.

[5] = Test Example A-2 intrarenal distribution test; type: in vivo, C.B-17SCID mouse; conditions: 50 mg/kg as converted to 7-ethyl-10-hydroxycamptothecin, iv once, 30 minutes after administration
[6] = tested on: human pancreatic cancer BxPC3; experiment: Test Example A-1 intratumor distribution test; type: in vivo, nude mouse; conditions: 50 mg/kg as converted to 7-ethyl-10-hydroxycamptothecin, iv once, 30 minutes after administration
From the text: Thirty minutes after the administration, blood was removed from the mouse under isoflurane anesthesia, frozen embedded slices of the removed tumor were produced, and fluorescence was observed.

[7] = Maximum tolerated dose / maximum non-lethal dose, single intravenous administration; type: in vivo, mice; conditions: as converted to cabazitaxel, iv once through the caudal vein
[8] = tested on: human pancreatic cancer BxPC3; experiment: Test Example C-3 antitumor effect test in human pancreatic cancer-transplanted nude mouse; type: in vivo; conditions: 60 mg/kg as converted to cabazitaxel
Description: A tumor mass of human pancreatic cancer BxPC3 that had been subcutaneously subcultured in a nude mouse was cut into a block having a size of about 3 mm on each side, and this block was subcutaneously transplanted on the dorsal side of a nude mouse using a trocar.
A relative tumor volume was determined from the tumor volumes obtained on the day of administration and on the 8th day after the administration, and this was employed as an index for the antitumor effect. The tumor volume was determined by measuring the major axis (L: mm) and the minor axis (W: mm) of the tumor, and calculating the volume by the calculation formula: (L×W^2)/2.

human lung cancer H460 = experiment: Test Example C-4 antitumor effect test in human lung cancer-transplanted nude mouse; type: in vivo; conditions: 60 mg/kg as converted to cabazitaxel
Description: A tumor mass of human lung cancer H460 that had been subcutaneously subcultured in a nude mouse was cut into a block having a size of about 3 mm on each side, and this block was subcutaneously transplanted on the dorsal side of a nude mouse using a trocar.
A relative tumor volume was determined from the tumor volumes obtained on the day of administration and on the 15th day after the administration, and this was employed as an index for the antitumor effect. The tumor volume was determined by measuring the major axis (L: mm) and the minor axis (W: mm) of the tumor, and calculating the volume by the calculation formula: (L×W^2)/2.

[9] = Description: As a control group, a 5% glucose injection solution was intravenously administered once through the caudal vein.
Polysorbate 80 was added thereto in an amount equal to the amount of anhydrous ethanol, and the mixture was sufficiently mixed. This was used as a preparation stock solution.
After 3, 5, 7, 11, and 14 days from the day of administration of the various compounds, blood was collected through the subclavian vein without anesthesia using a 1-mL disposable syringe with a 26 G needle. About 3 μL of an EDTA-2K solution had been added in advance to the syringe, and this solution was sufficiently mixed with the blood thus collected. The resultant solutions were used as analysis samples. The blood samples were subjected to a blood cell analysis using a blood cell analysis apparatus XT-2000iV (Sysmex Corp.).

[10] = compared to cabazitaxel 30 mg/kg

## 2-(2-aminoethoxy)-9-(diethylamino)-5H-benzo[a]phenoxazin-5-one Conjugate of polyethylene glycol (2 Kilodaltons)-α,β-polyaspartic Acid (12.5 Polymer) Block Copolymer [Comparative Example C-3]
[1]
  tissue distribution in kidney slices (fluorescence): fluorescence was observed in the renal tubules
[2]
  tissue distribution in tumor slices (fluorescence): migration and accumulation in the tumor tissue was low
[3]; 1 mg/mL aqueous solution vs standard toluene solution under the same conditions
  relative ratio between the light scattering intensity and the light scattering intensity of toluene: less than twice
[3]; aqueous solution
  self-association in aqueous solution: non-associating

## 4-isopropyl-6-(4-(1-methyl-1H-indol-5-yl)-5-methylene-4,5-dihydro-1H-1,2,4-triazol-3-yl)benzene-1,3-diol Conjugate of polyethylene glycol (2 Kilodaltons)-polyglutamic Acid (7.9 Polymer) Block Copolymer [Example B-1]
[4]
  antitumor effect: superior effect in both subcutaneous tumor models at the same dose

## 7-ethyl-10-hydroxycamptothecin (EHC) and 2-(2-aminoethoxy)-9-(diethylamino)-5H-benzo[a]phenoxazin-5-one Conjugate of polyethylene glycol (2 Kilodaltons)-polyglutamic Acid (7.6 Polymer) Block Copolymer [Example A-4]
[5]
  tissue distribution in kidney slices (fluorescence): fluorescent signals were observed in the blood vessels and the renal tubules of the kidneys
[6]
  tissue distribution in tumor slices (fluorescence): could penetrate into deep parts of a tumor tissue

## 7-ethyl-10-hydroxycamptothecin (EHC) and 2-(2-aminoethoxy)-9-(diethylamino)-5H-benzo[a]phenoxazin-5-one Conjugate of polyethylene glycol (12 Kilodaltons)-polyglutamic Acid (25 Polymer) Block Copolymer [Comparative Example A-4, reference compound]
[5]
  tissue distribution in kidney slices (fluorescence): fluorescence was not recognized in areas other than the blood vessels of the kidneys
[6]
  tissue distribution in tumor slices (fluorescence): did not penetrate into deep parts of the tumor tissue

## Cabazitaxel (CBZ) and n-butylamine Conjugate of polyethylene glycol (2 Kilodaltons)-α,β-polyaspartic Acid (12.5 Polymer) Block Copolymer [Example C-1]
[7]
  maximum tolerated dose: 60 mg/kg
[8]; [10]
  antitumor effect: stronger tumor proliferation suppressing action
[8]; iv once, 8th day after administration, day of administration = 1.0, average ± SD
  Relative tumor volume: 0.83 ± 0.10
Human lung cancer H460; [10]
  antitumor effect: stronger tumor proliferation suppressing action
Human lung cancer H460; iv once, 15th day after administration, day of administration = 1.0, average ± SD
  Relative tumor volume: 0.560 ± 0.201
[9]; 60 mg/kg as converted to cabazitaxel, iv once, 5th day after administration
  Number of blood reticulocytes: 52.69 ± 13.95 ×10^4/μL
[9]; 5 days after administration
  prolonged hematotoxicity: prolonged hematotoxicity was not recognized
